B1: DH1041, SARS-CoV-2-specific ACE2-binding site-focused RBD neutralizing antibody (antibody, V domains shown)
VH: EVQLVESGGGLVQPGGSLRLSCAASGVTFSSYWMSWVRQAPGKGLEWVANIRQDGSEKYSVDSVKGRFTISRDNAKNSLYLQMNSLRAEDTAVYYCARARRADNSGYYGFHFDCWGQGTLVTVSS
VL: QSVLTQPPSVSGAPGQRVTISCTGSSSNIGAGYDVHWYQQLPGTAPKLLIYGNNNRPSGVPDRFSDSKSGTSASLAITRLQAEDEADYYCQSYDSSLSGWVFGGGTKLTVL
B2: DH1047 antigen binding fragment (Fab) (Fab, V domains shown)
VH: QVQLVQSGAEVKKPGASVQVSCQASANTFTNHYIHWVRQAPGQGLEWMGIIYPTGGNTIYAQGFQGRVTMTRDTSLNTIYLELSSLRSEDTAVYYCARDVRVDDSWSGYDLLSGGTYFDYWGQGTLVTVSS
VL: not shown

Legend:
[1] = molecular target: SARS-CoV-2 RBD sortase A conjugated nanoparticle (24-mer SARS-CoV-2 RBD-ferritin nanoparticle) (SARS-CoV-2, Wuhan strain, UniProt P0DTC2); assay: BLI
[2] = molecular target: T1, monomeric SARS-CoV-2 RBD (wildtype Spike RBD monomer) (SARS-CoV-2, Wuhan strain, UniProt P0DTC2); assay: ELISA
[3] = molecular target: T1, monomeric SARS-CoV-2 RBD (wildtype …); assay: SPR

Binder	binding result [1]	binding result [2]	Kd [3] [nM]
B1	binds	binds	
B2			< 0.02

Reference: paper PMC8528238 (Nature, 2021)
